Results taken from patent US8058046B2, “Sesquiterpene synthases from patchouli” (Firmenich SA, priority 2003, dated 2011).

Columns and labels:
[1] = Enzyme assay: conversion of FPP to sesquiterpenes by recombinant sesquiterpene synthase, GC / GC-MS analysis; format: biochemical; conditions: FPP as substrate; for main (major) sesquiterpene product formed: crude protein extract from E. coli expressing the recombinant synthase, GC-MS and retention index
Experimental: In a standard protein expression experiment, the expression plasmids containing the sesquiterpene synthase cDNAs as well as the empty plasmid (for negative control) were transformed into the BL21(DE3) or the BL21 STAR™ (DE3) E. coli cells (Novagen). Single colonies of transformed E. coli were used to inoculate 5 ml LB medium. After 5 to 6 hours of incubation at 37° C., the cultures were transferred to a 20° C. incubator and left 1 hour for equilibration. Expression of the protein was then induced by addition of 0.5 mM IPTG and the culture incubated over-night at 20° C. The next day, the cells were collected by centrifugation, resuspended in 0.5 ml Extraction Buffer (50 mM MOPSO pH 7, 5 mM DTT, 10% glycerol) and sonicated 3 times 30 s. The cell debris were sedimented by centrifugation 30 min at 18,000 g and the supernatant containing the soluble proteins was recovered. The expression of the sesquiterpene synthases was evaluated by separation of the protein extract on a SDS-PAGE, staining with coomassie blue and comparison to protein extract obtained from cells transformed with the empty plasmid.
The enzymatic assays were performed in Teflon sealed glass tubes using 50 to 100 μl of protein extract in a final volume of 1 mL Extraction Buffer supplemented with 15 mM MgCl2 and 100 to 250 μM FPP (Sigma). The medium was overlaid with 1 ml pentane and the tubes incubated over-night at 30° C. The pentane phase, containing the sesquiterpenes, was recovered and the medium extract with a second volume of pentane. The combined pentane fractions were concentrated under nitrogen and analyzed by Gas Chromatography on a on a Hewlett-Packard 6890 Series GC system using a 0.25 mm inner diameter by 30 m SPB-1 (Supelco) capillary column. The carrier gas was He at constant flow of 1.6 ml/min. Injection was done in splitless mode with the injector set at 200° C. and the oven programmed from 100° C. (0 min hold) at 7.5° C./min to 200° C. (0 min hold) followed by 20° C./min to 280° C. (2 min hold). Detection was made with a flame ionization detector. Compound identification was based on retention time identity with authentic standards when available. For confirmation of the products identities, samples were analyzed by combined capillary GC-MS using a Hewlett-Packard 6890 GC-quadrupole mass selective detector system, equipped with a 0.25 mm inner diameter by 30 m SPB-1 (Supelco) capillary column. The oven was programmed from 80° C. (0 min hold) to 280° C. at 7° C. at a constant flow of 1.5 ml/min He. The spectra were recorded at 70 eV with an electron multiplier voltage of 2200V. Retention time of the enzyme products were compared to the retention time of authentic standard, or the Kovats retention index was calculated and compared to published data (Joulain, D., and König, W. A. The Atlas of Spectral Data of Sesquiterpene Hydrocarbons, EB Verlag, Hamburg, 1998).
For the biochemical characterization of the sesquiterpene synthases for which the full-length cDNA was isolated, the cDNA was ligated into appropriate expression plasmids. This plasmid were used to transform E coli cells and after expression of the recombinant proteins, the E coli proteins were extracted and used to evaluate the biochemical conversion of FPP to sesquiterpene compounds (see Examples 5 and 6).

[2] = tested on: BL21 (DE3) E. coli cells; test: In vivo sesquiterpene production assay in E. coli from the endogenous FPP pool; format: cell-based; conditions: E. coli cells expressing the synthase, 24 hours after 1 mM IPTG, pentane extract, GC / GC-MS; none with empty plasmid
Experimental: Experiments were performed using E. coli, to test the ability of the patchoulol synthase to synthesise, in vivo, sesquiterpenes from the endogenous FPP pool. Typical experiments for evaluation of in vivo sesquiterpene production are performed as follows. The expression plasmid containing the sesquiterpene synthase cDNA are transformed in BL21 (DE3) E. coli cells. Single colonies of transformed cells are used to inoculate 5 mL LB medium supplemented with the appropriate antibiotics. After 5 to 6 hours of incubation at 37° C., the culture were use to inoculate 100 ml TB medium supplemented with the appropriate antibiotics and the culture was incubated for 2 hours at 20° C. in a 250 mL shake flask. After 2 hours incubation, expression of the protein was induced by the addition of 1 mM IPTG. The cultures were left 24 hours and were then directly extracted twice with one volume of pentane. The two solvent fractions were recovered, combined and concentrated to 0.5 mL prior to GC-MS analysis. […] Patchoulol could be clearly detected by GC analysis of the culture extract, and no patchoulol was detected with cells transformed with the empty plasmid. The identity of the product could be confirmed by GC-MS, but the amount of sesquiterpene produced was relatively low and estimation of the quantities was not possible.

[3] = estimated by GC (flame ionization detection)

B1: PatTpsBF2: recombinant (−)-germacrene D synthase from patchouli, cDNA SEQ ID NO:2 (protein)
chain: MELKNQSVAIISSNASRPLAHYHPDVWGDRFLLYKPNPSSEAGQKPVIEELKQQVRSELKEASNDYMRQLKMVDAIQRLGIESLFEEDIDNALKNLSENFDDYCKDKHDLYAIALSFRLLRQHGYRISCDVFDKLKDGEDGFKVPPSDEALAVVELLEATHLRIHGEVVLDRAFVFARIHLESIEANLNNPVAKQVHNALYGYSNRRGMQQVEARKYIPIYEQYASHHQGLLKLATLNFNLQQTMHKRELSELSRWYRDLEVPTMLPFARQRLVETYFWDAGVVFEPENDVARMILVKVQCLISFLDDTFDAYGSFEELQLFTDAINTWDVSCLDQLPDYMKIIYKALLGVFEVIEKLMIKQGTLYRLNYAKEAMKIVVGGYFVEAKWREEKSKPTTQEYMQVATKSAGYMTLIITSFLGMEANIATKEAFDWVLSEPDVMKAAITLARLTNDIVGIELEKERKHIATAVEVYEDEHKLSMQEAMVEIKNQIESGWKTINEAFLRPTKFPTPILYRILNYCRVLEVIYDKSDRYTHVDPALQDIIKQLYIHPIP
modifications: Pogostemon cablin
For B1, which “main (major) sesquiterpene product formed” value [1] is on record?
The value was “(−)-germacrene D”.

And the “sesquiterpene synthase activity in recombinant E. coli protein extract” value (“sesquiterpene synthase activity” for short) ([1]; crude protein extract)?
Its value is “could be detected”.

B2: PatTpsCF2: recombinant (+)-germacrene A synthase from patchouli, cDNA SEQ ID NO:3 (protein)
chain: MAVQISETVRPFANFSPNPSLWGDQFINHKSKTQQISRIYLEEIEGLKNEVKCMLTSTPEGKMADTVNLIDTLERLGVSYHFEKEIEEKMKHLFNLIKADNYKDHEGCDLYTDALHFRLFRQHGYPISSGIFNKWMDGNGKFKESIKSDAKGLLSLYEACCLRTHGDTLLDEALVFATASLKSMAANLASPLRKQVEHALFQHLHFGIPRVEARHFITFYEEEEHKNEMLLRFAKLDFNALQALHKEELSEISKWWKDLDLISKLPYARDRVVESYFWAVGVYYQPKYSRARIMLTKTIAMTAILDDTYDSYGTLEELDVLTKAIERWDIKEINGLPEYIKGFYKQVLKLYQQLEEELAKEGRSYAVYYAIEACKELARSYAVEAKWFKKGYLPGFEEYLINSLVTSTAGYLNIISFFGVESVTKEDFEWFSKKPRIAVATQIITRVIDDIATYEVEKEKGQSATGIDCYMKEHGVSKEKAMQRFYEMSTNAWKDINEEGLSWPSSFSRDIFVQLRNFSRMVDVTYGKNEDGYSKPEKILKPLIIALFVDQIKL
modifications: Pogostemon cablin
Which “main (major) sesquiterpene product formed” value [1] does the source give for B2 here?
The value was “(+)-germacrene A”.

What about the “sesquiterpene synthase activity” value ([1]; crude protein extract) of the same molecule?
Its value is “easily detected”.

B3: PatTps177: recombinant patchoulol synthase from patchouli, cDNA SEQ ID NO:5 (protein)
chain: MELYAQSVGVGAASRPLANFHPCVWGDKFIVYNPQSCQAGEREEAEELKVELKRELKEASDNYMRQLKMVDAIQRLGIDYLFVEDVDEALKNLFEMFDAFCKNNHDMHATALSFRLLRQHGYRVSCEVFEKFKDGKDGFKVPNEDGAVAVLEFFEATHLRVHGEDVLDNAFDFTRNYLESVYATLNDPTAKQVHNALNEFSFRRGLPRVEARKYISIYEQYASHHKGLLKLAKLDFNLVQALHRRELSEDSRWWKTLQVPTKLSFVRDRLVESYFWASGSYFEPNYSVARMILAKGLAVLSLMDDVYDAYGTFEELQMFTDAIERWDASCLDKLPDYMKIVYKALLDVFEEVDEELIKLGAPYRAYYGKEAMKYAARAYMEEAQWREQKHKPTTKEYMKLATKTCGYITLIILSCLGVEEGIVTKEAFDWVFSRPPFIEATLIIARLVNDITGHEFEKKREHVRTAVECYMEEHKVGKQEVVSEFYNQMESAWKDINEGFLRPVEFPIPLLYLILNSVRTLEVIYKEGDSYTHVGPAMQNIIKQLYLHPVPY
modifications: Pogostemon cablin
Which “in vivo production of patchoulol from endogenous FPP” value [2] does the source give for B3 here?
Its value is “produced patchoulol”.

And the “amount of (+)-germacrene A among sesquiterpenes produced” value ([1]; estimated by GC (FID), detected as the thermal rearrangement product β-element)?
The value was 1.6%.

And the “amount of (Z,E)-α-farnesene among sesquiterpenes produced” value [1, 3]?
The value was 1.35%.

What about the “amount of (trans)-alpha-farnesene among sesquiterpenes produced” value [1, 3] of the same molecule?
The value was 3%.

What about the “amount of (−)-patchoulol among sesquiterpenes produced” value [1, 3] of the same molecule?
Its value is 39.1%.

And the “amount of alpha-guaiene among sesquiterpenes produced” value [1, 3]?
The value was 14%.

And the “amount of alpha-humulene among sesquiterpenes produced” value [1, 3]?
The value was 1.1%.

And the “amount of seychellene among sesquiterpenes produced” value [1, 3]?
The value was 4%.

What about the “amount of trans-β-caryophyllene among sesquiterpenes produced” value [1, 3] of the same molecule?
Its value is 4.5%.

And the “amount of trans-β-farnesene among sesquiterpenes produced” value [1, 3]?
The value was 3%.

What about the “amount of α-bulnesene among sesquiterpenes produced” value [1, 3] of the same molecule?
Its value is 8.6%.

What about the “amount of α-patchoulene among sesquiterpenes produced” value [1, 3] of the same molecule?
Its value is 8.9%.

What about the “amount of γ-patchoulene among sesquiterpenes produced” value [1, 3] of the same molecule?
Its value is 2.5%.

And the “amount of δ-patchoulene among sesquiterpenes produced” value [1, 3]?
The value was 2.1%.

And the “main (major) sesquiterpene product formed” value [1]?
Its value is “(−)-patchoulol”.

And the “number of other sesquiterpenes produced besides the main product” value ([1]; crude protein extract, GC-MS)?
Its value is “at least 18”.

B4: PatTpsB15: another recombinant (−)-germacrene D synthase from patchouli, cDNA SEQ ID NO:4 (protein)
chain: MDLNEITSSSRPLANYHPNVWGDRFLLHEPEFTCQAGEKQLVEELKEEVRRELKEASNDYLRQLKMVDAIQRLGIEYLFEEEIDEALRNLLAKFENYCKDNHDMYATALSFRLLRQHGYKVSCEVFDKFKDGEDGFKVEEVMAVLELFEATHMRIHGEDVLDQAFVFTRNYLQSIHATLSNPIAKQVHNALNGYSCRRGMPRIEARKYIPIYEEYGCHHKALLKLAKLDFNLLQSMHKRELTQLYRWWKDLEMPTKLPYIRDRLVETYFWDMGFYFEPQYALARNILVKVQCLVSIFDDTFDAYGAFKELQLFKDAIDRWSISCLDELPEYMQIIYKLVLDVFEEIESHMIKQGTSYRLDYAREAIKIVIGGYFDEAKWREEEYKPRMEEYMKVATKSAAYLTLIIVSFVGMKNDIATPQAFQWVLSEPQIITASLALARLSNDLVGIEFEKERKYIATAVELYEEEHKVSKEEAVLELRHETESAWKEINEALLEPTTFATPILDRILNSARVLEVFYDKTDRYTHVDLELQNIIAQLYIHPIP
modifications: Pogostemon cablin
Which results are given for B4?
main (major) sesquiterpene product formed [1]: (−)-germacrene D; sesquiterpene synthase activity in recombinant E. coli protein extract ([1]; crude protein extract): relatively good metabolization of FFP

B5: PatTpsA: recombinant γ-curcumene synthase from patchouli (Pogostemon cablin), cDNA SEQ ID NO:1 (protein)
chain: MAAFTANAVDMRPPVITIHPRSKDIFSQFSLDDKLQKQYAQGIEALKEEARSMLMAAKSAKVMILIDTLERLGLGYHFEKEIEEKLEAIYKKEDGDDYDLFTTALRFRLLRQHQRRVPCSVFDKFMNKEGKFEEEPLISDVEGLLSLYDAAYLQIHGEHILQEALIFTTHHLTRIEPQLDDHSPLKLKLNRALEFPFYREIPIIYAHFYISVYERDDSRDEVLLKMAKLSYNFLQNLYKKELSQLSRWWNKLELIPNLPYIRDSVAGAYLWAVALYFEPQYSDVRMAIAKLIQIAAAVDDTYDNYATIREAQLLTEALERLNVHEIDTLPDYMKIVYRFVMSWSEDFERDATIKEQMLATPYFKAEMKKLGRAYNQELKWVMERQLPSFEEYMKNSEITSGVYIMFTVISPYLNSATQKNIDWLLSQPRLASSTAIVMRCCNDLGSNQRESKGGEVMTSLDCYMKQHGASKQETISKFKLIIEDEWKNLNEEWAATTCLPKVMVEIFRNYARIAGFCYKNNGDAYTSPKIVQQCFDALFVNPLRI
modifications: Pogostemon cablin
For B5, which “main (major) sesquiterpene product formed” value [1] is on record?
The value was “γ-curcumene”.

And the “sesquiterpene synthase activity” value ([1]; crude protein extract)?
The value was “low”.
